What is called Tm is the temperature at which the thermal transition is half complete.

This data set is described as follows: melting temperature; melt of duplexes. Conditions: sodium 0.0675 M; strand 1 µM.
Turning to “CGACGTGCGTTATGTGCTG+CAGCACATAACGCACGTCG (((((((((((((((((((+)))))))))))))))))))”, the Tm was found to be 63.6 °C.

Turning to “CGACGTGCACCATGTGCTG+CAGCACATTACGCACGTCG ((((((((...((((((((+))))))))...))))))))”, the Tm came out at 42.4 °C.

Turning to “CGACGTGCTGGATGTGCTG+CAGCACATTAAGCACGTCG (((((((((..((((((((+))))))))..)))))))))”, the Tm came to 54.8 °C.

With “CGACGTGCTAGATGTGCTG+CAGCACATATAGCACGTCG ((((((((((.((((((((+)))))))).))))))))))”, the midpoint of thermal melting (Tm) came out at 57.6 °C.

“CGACGTGCTAGATGTGCTG+CAGCACATTCTGCACGTCG ((((((((...((((((((+))))))))...))))))))”: the midpoint of thermal melting (Tm) came to 52.2 °C.

As to “CGACGTGCACGATGTGCTG+CAGCACATATCGCACGTCG ((((((((...((((((((+))))))))...))))))))”, the Tm is 44.2 °C.

Consider “CGACGTGCCAAATGTGCTG+CAGCACATACTGCACGTCG ((((((((...((((((((+))))))))...))))))))”, for which the melting temperature (Tm) came to 47.4 °C.

Regarding “CGACGTGCCATATGTGCTG+CAGCACATCCGGCACGTCG (((((((((..((((((((+))))))))..)))))))))”, the melting temperature (Tm) is 52.8 °C.

Turning to “CGACGTGCGATATGTGCTG+CAGCACATTGAGCACGTCG ((((((((...((((((((+))))))))...))))))))”, the Tm was 57.2 °C.

On to “CGACGTGCCGAATGTGCTG+CAGCACATAGTGCACGTCG ((((((((...((((((((+))))))))...))))))))”, for which the Tm is 45.9 °C.

In the case of “CGACGTGCGGAATGTGCTG+CAGCACATAACGCACGTCG (((((((((..((((((((+))))))))..)))))))))”, the midpoint of thermal melting (Tm) came out at 58.6 °C.

Turning to “CGACGTGCTTTATGTGCTG+CAGCACATTCAGCACGTCG (((((((((..((((((((+))))))))..)))))))))”, the Tm stood at 50.5 °C.

Turning to “CGACGTGCACCATGTGCTG+CAGCACATCATGCACGTCG (((((((((..((((((((+))))))))..)))))))))”, the melting temperature (Tm) came out at 45.6 °C.

As to “CGACGTGCGTCATGTGCTG+CAGCACATCTCGCACGTCG (((((((((..((((((((+))))))))..)))))))))”, the Tm amounted to 52.4 °C.

Regarding “CGACGTGCCAGATGTGCTG+CAGCACATGATGCACGTCG ((((((((...((((((((+))))))))...))))))))”, the melting temperature (Tm) turned out to be 49.4 °C.

As for “CGACGTGCTTGATGTGCTG+CAGCACATGGGGCACGTCG ((((((((...((((((((+))))))))...))))))))”, the Tm is 50.7 °C.

With “CGACGTGCCCGATGTGCTG+CAGCACATAAGGCACGTCG (((((((((..((((((((+))))))))..)))))))))”, the midpoint of thermal melting (Tm) is 54.5 °C.

Take “CGACGTGCCGTATGTGCTG+CAGCACATCCTGCACGTCG ((((((((.(.((((((((+)))))))).).))))))))”: the Tm turned out to be 49.7 °C.

On to “CGACGTGCTTGATGTGCTG+CAGCACATCGCGCACGTCG ((((((((..(((((((((+)))))))))..))))))))”, for which the Tm came to 54.3 °C.

Turning to “CGACGTGCAAGATGTGCTG+CAGCACATTGGGCACGTCG ((((((((...((((((((+))))))))...))))))))”, the Tm was determined as 51.5 °C.

Consider “CGACGTGCTGTATGTGCTG+CAGCACATATTGCACGTCG ((((((((..(((((((((+)))))))))..))))))))”, for which the midpoint of thermal melting (Tm) was determined as 52.7 °C.

For “CGACGTGCAAGATGTGCTG+CAGCACATGTTGCACGTCG ((((((((((.((((((((+)))))))).))))))))))”, the Tm came out at 57.8 °C.

With “CGACGTGCTAGATGTGCTG+CAGCACATCCAGCACGTCG (((((((((.(((((((((+))))))))).)))))))))”, the midpoint of thermal melting (Tm) amounted to 56.1 °C.

As to “CGACGTGCTCCATGTGCTG+CAGCACATCTAGCACGTCG (((((((((..((((((((+))))))))..)))))))))”, the Tm turned out to be 49.5 °C.

For the substance “CGACGTGCGCTATGTGCTG+CAGCACATTTGGCACGTCG ((((((((...((((((((+))))))))...))))))))”, the Tm came to 49.2 °C.

As to “CGACGTGCCCGATGTGCTG+CAGCACATTGGGCACGTCG ((((((((((.((((((((+)))))))).))))))))))”, the Tm amounted to 62.4 °C.

Take “CGACGTGCACAATGTGCTG+CAGCACATAGGGCACGTCG ((((((((.(.((((((((+)))))))).).))))))))”: the midpoint of thermal melting (Tm) is 53 °C.

As to “CGACGTGCTCGATGTGCTG+CAGCACATCAGGCACGTCG ((((((((..(((((((((+)))))))))..))))))))”, the Tm was determined as 55.4 °C.

For the substance “CGACGTGCAGTATGTGCTG+CAGCACATACGGCACGTCG ((((((((.((((((((((+)))))))))).))))))))”, the melting temperature (Tm) stood at 58.3 °C.

As to “CGACGTGCGCAATGTGCTG+CAGCACATCGGGCACGTCG ((((((((.(.((((((((+)))))))).).))))))))”, the Tm was found to be 52.7 °C.

On to “CGACGTGCAATATGTGCTG+CAGCACATCCAGCACGTCG ((((((((...((((((((+))))))))...))))))))”, for which the Tm turned out to be 48.1 °C.

Take “CGACGTGCTTCATGTGCTG+CAGCACATCTGGCACGTCG ((((((((...((((((((+))))))))...))))))))”: the melting temperature (Tm) turned out to be 48.9 °C.

For the substance “CGACGTGCGTGATGTGCTG+CAGCACATGTAGCACGTCG ((((((((...((((((((+))))))))...))))))))”, the Tm stood at 53.3 °C.

Consider “CGACGTGCGAAATGTGCTG+CAGCACATCGAGCACGTCG ((((((((...((((((((+))))))))...))))))))”, for which the melting temperature (Tm) was 55.9 °C.

Take “CGACGTGCCCGATGTGCTG+CAGCACATTAAGCACGTCG ((((((((...((((((((+))))))))...))))))))”: the Tm is 49.5 °C.

Consider “CGACGTGCGTTATGTGCTG+CAGCACATGTAGCACGTCG ((((((((...((((((((+))))))))...))))))))”, for which the Tm came to 53.6 °C.

As to “CGACGTGCGGAATGTGCTG+CAGCACATTGAGCACGTCG ((((((((..(((((((((+)))))))))..))))))))”, the midpoint of thermal melting (Tm) amounted to 56.2 °C.

For “CGACGTGCTTTATGTGCTG+CAGCACATCCAGCACGTCG (((((((((..((((((((+))))))))..)))))))))”, the Tm is 49.4 °C.

As for “CGACGTGCAGCATGTGCTG+CAGCACATTTGGCACGTCG ((((((((...((((((((+))))))))...))))))))”, the midpoint of thermal melting (Tm) came out at 45.4 °C.

As to “CGACGTGCTGGATGTGCTG+CAGCACATCTGGCACGTCG ((((((((..(((((((((+)))))))))..))))))))”, the midpoint of thermal melting (Tm) was found to be 58.3 °C.

Regarding “CGACGTGCGCAATGTGCTG+CAGCACATGGGGCACGTCG ((((((((.(.((((((((+)))))))).).))))))))”, the Tm was determined as 56.5 °C.

In the case of “CGACGTGCTCTATGTGCTG+CAGCACATAGGGCACGTCG ((((((((.((((((((((+)))))))))).))))))))”, the melting temperature (Tm) was determined as 58.4 °C.

On to “CGACGTGCACCATGTGCTG+CAGCACATAAAGCACGTCG ((((((((...((((((((+))))))))...))))))))”, for which the Tm came to 45 °C.

“CGACGTGCGAGATGTGCTG+CAGCACATGATGCACGTCG ((((((((...((((((((+))))))))...))))))))”: the Tm came out at 53.2 °C.

As for “CGACGTGCCTGATGTGCTG+CAGCACATAAAGCACGTCG ((((((((.(.((((((((+)))))))).).))))))))”, the Tm was found to be 51.7 °C.

As for “CGACGTGCCTTATGTGCTG+CAGCACATGCGGCACGTCG (((((((((..((((((((+))))))))..)))))))))”, the Tm is 52.3 °C.

Take “CGACGTGCGTGATGTGCTG+CAGCACATGGGGCACGTCG ((((((((...((((((((+))))))))...))))))))”: the midpoint of thermal melting (Tm) came to 51.2 °C.

(Values after the array DNA melting data of Ke et al..)
